{"source": "patent US20030211563A1", "about": "(UNIVERSITY OF VIRGINIA PATENT FOUNDATION, published 2003)", "binders": {"B1": {"name": "GAL4 activation domain alone (GAL-AD plasmid) (other, UniProt P04386 768-881, looked up)", "chain": "ANFNQSGNIADSSLSFTFTNSSNGPNLITTQTNSQALSQPIASSNVHDNFMNNEITASKIDDGNNSKPLSPGWTDQTAYNAFGITTGMFNTTTMDDVYNYLFDDEDTPPNPKKE", "notes": "Empty prey control in the yeast two-hybrid experiment; also called GAL-AD alone"}}, "biological_target": "T1, tssk 2 fused to the GAL4 DNA binding domain (DNA-BD) (human, UniProt P04386 1-147 (Saccharomyces cerevisiae entry), limits assumed)", "T1 construct": "Yeast two-hybrid bait in reporter strain AH109; also called bait gene (tssk 2); TSSK2 fusion protein with the DNA-BD", "assay": "yeast two-hybrid, growth in His-free medium", "experimental": "In this experiment, a bait gene (tssk 2) was first transformed into the reporter strain as a fusion to the GAL4 DNA binding domain (DNA-BD). A second plasmid that expressed tsks as fusion to the GAL 4 activation domain (AD) was also introduced into the AH109 reporter strain. Western blots were performed to confirm expression of fusion proteins in yeast. […] This interaction was used as a positive control. […] Neither GAL-AD alone nor the fusion proteins between GAL-AD and TSKS or GAL-AD and SV40 Large T antigen had the ability to activate transcription of the His gene."}
{"binder": "B1", "values": [{"measurement": "binding result", "value": "no binding"}]}
